Assay [1] concerns the target T1, MTDH-SND1 interaction (Homo sapiens, UniProt Q7KZF4).
T1 construct: made in house; host or cells: HEK293T cells, transient transfection of pcDNA3.1 plasmids; crude cleared lysates, each fusion expressed separately and the lysates pre-mixed
The assay can be described thus: Cell-free split-luciferase (Split-luc) assay, SND1-NLuc + CLuc-MTDH. Particulars: 50 μM peptide. Type of assay: biochemical. The source says:
To generate a luciferase-based screening system, firefly luciferase was split into N- and C-terminals according to previous studies^21-23. Both N- and C-terminal domains alone have almost undetectable luciferase activity (FIG. 10A). Next, the two fragments were fused to SND1 and MTDH interaction domains respectively to generate SND1-NLuc and CLuc-MTDH (Split-luc) (FIG. 10A, left, and Table 3). […] However, when SND1-NLuc+CLuc-MTDH were co-expressed, N- and C-terminal domains of the luciferase fragments were brought close to each other due to the interaction between SND1 and MTDH, and substantial luciferase activity was reconstituted (FIG. 3A, left and FIG. 10A).
(§1) Luciferase-based screening. Seed HEK293T cells on 3×15 cm dish at 18-24 hr before transfection with 7-8×10^6 cells per dish targeting 70-80% confluence when start transfection. 20 μg of pCDNA3.1-SND1-NLuc, pCDNA3.1-CLuc-MTDH, or 2 μg of pCDNA3.1-NLuc-CLuc plasmids that described above were transfected to each dish. 72 hr after transfection the cells were lysed with 5 ml of luciferase lysis buffer (2 mM EDTA, 20 mM DTT, 10% glycerol, 1% Triton X-100, 25 mM Tris base, adjusted to pH7.8 with H3PO4) at 4° C. for 20 min. The protein lysates were centrifuged at 13,000 rpm for 10 min, and the supernatant were collected.
For small chemical compound screening, white, flat-bottom, solid 384-well plates were used. Compounds were added into each well as 0.1 μl of 10 mM DMSO solution (or same amount of DMSO, serve as control). The first and last columns were free, and MTDH wild type (PNSDWNAPAEEWGNW) or mutant (PNSDANAPAEEAGNW) peptides were added as positive and negative controls right before screening. Same amount of MTDH-CLuc and SND1-NLuc were pre-mixed at 4° C. for 30 min to generate split-luc. 5 μl of split- or linked-luc was added into each well. 15 μl of luciferase assay buffer (25 mM Glycylglycine pH 7.8, 15 mM K3PO4 pH 7.8, 15 mM MgSO4, 4 mM EGTA, 2 mM ATP added just before use, 10 mM DTT added just before use and 1 mM D-Luciferin added just before use) was then added into each well to get a 20 μl reaction system with 50 μM of compounds (peptides) in each well. The plates were incubated at 4° C. for 1 hr and luciferase activity at each well was measured.
The inhibitory efficiency of each compound was calculated as following: (signal at DMSO well−signal at compound well)/signal at DMSO well. MTDH wild type or mutant peptide in each plate was served as positive and negative controls to monitor the data quality of each plate.

Assay [2] addresses T2, Linked-luc (NLuc and CLuc of firefly luciferase fused together) (Photinus pyralis, UniProt P08659, INS416[…]).
T2 construct: made in house; host or cells: HEK293T cells, transient transfection of pcDNA3.1-NLuc-CLuc; crude cleared lysate
The assay can be described thus: Linked-luciferase (Linked-luc) counter screen, cell free. To be noted: 50 μM peptide. Type of assay: biochemical. From the text: The interaction between SND1-NLuc and CLuc-MTDH was also validated with co-immunoprecipitation (Co-IP) experiments (FIG. 10B). In the presence of the compounds (inhibitors) that block MTDH-SND1 interaction, the reconstitution of luciferase activity was expected to be reduced (FIG. 3A). Meanwhile, considering the possibility that compounds capable of directly inhibiting the enzymatic activity of luciferase could also result in lower luciferase signal without any blocking effect on MTDH-SND1 interaction, Linked-luc that directly fuse NLuc and CLuc together was generated to be used in counter screening (FIG. 3A, right, and Table 3).
Luciferase-based screening. Seed HEK293T cells on 3×15 cm dish at 18-24 hr before transfection with 7-8×10^6 cells per dish targeting 70-80% confluence when start transfection. 20 μg of pCDNA3.1-SND1-NLuc, pCDNA3.1-CLuc-MTDH, or 2 μg of pCDNA3.1-NLuc-CLuc plasmids that described above were transfected to each dish. 72 hr after transfection the cells were lysed with 5 ml of luciferase lysis buffer (2 mM EDTA, 20 mM DTT, 10% glycerol, 1% Triton X-100, 25 mM Tris base, adjusted to pH7.8 with H3PO4) at 4° C. for 20 min. […]
For small chemical compound screening, white, flat-bottom, solid 384-well plates were used. […] The plates were incubated at 4° C. for 1 hr and luciferase activity at each well was measured.
On the technique in general: The purpose of a counterscreen is to sort out artefacts and off-target activity.

Assay [3] deals with T3, MTDH-SND1 interaction (Homo sapiens, UniProt Q7KZF4).
T3 construct: endogenous in cells; host or cells: SCP28 cells (lysate)
T3 sequence (Q7KZF4 2-910 limits assumed): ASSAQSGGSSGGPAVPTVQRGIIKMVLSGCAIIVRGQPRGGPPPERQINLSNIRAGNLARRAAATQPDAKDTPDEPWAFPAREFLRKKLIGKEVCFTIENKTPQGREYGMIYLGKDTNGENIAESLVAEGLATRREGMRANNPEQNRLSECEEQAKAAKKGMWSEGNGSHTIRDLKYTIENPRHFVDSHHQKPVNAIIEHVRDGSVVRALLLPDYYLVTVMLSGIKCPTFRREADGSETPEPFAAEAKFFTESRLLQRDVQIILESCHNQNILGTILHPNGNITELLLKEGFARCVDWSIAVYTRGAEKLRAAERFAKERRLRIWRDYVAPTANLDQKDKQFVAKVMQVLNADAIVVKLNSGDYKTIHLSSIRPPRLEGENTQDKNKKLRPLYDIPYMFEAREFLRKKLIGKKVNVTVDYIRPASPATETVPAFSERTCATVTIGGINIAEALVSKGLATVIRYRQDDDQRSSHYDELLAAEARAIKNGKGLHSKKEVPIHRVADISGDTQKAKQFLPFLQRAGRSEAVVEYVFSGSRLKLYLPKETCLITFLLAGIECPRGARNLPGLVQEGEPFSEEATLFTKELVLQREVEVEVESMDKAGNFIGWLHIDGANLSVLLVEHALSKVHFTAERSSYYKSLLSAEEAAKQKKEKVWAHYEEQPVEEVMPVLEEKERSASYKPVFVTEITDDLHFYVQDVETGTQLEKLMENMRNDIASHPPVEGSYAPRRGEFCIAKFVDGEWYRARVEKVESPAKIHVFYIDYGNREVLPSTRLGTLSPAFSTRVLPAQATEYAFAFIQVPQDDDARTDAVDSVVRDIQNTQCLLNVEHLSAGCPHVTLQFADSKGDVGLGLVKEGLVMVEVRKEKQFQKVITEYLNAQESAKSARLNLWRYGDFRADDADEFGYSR
Briefly: Co-immunoprecipitation (Co-IP) in SCP28 lysates with anti-MTDH antibody, Western blot for SND1. Type of assay: binding. Particulars: 500 μM, SCP28 lysate. How it is done: FIG. 3F, SCP28 cells grown confluent in each 10-cm dish were lysed with 1 ml IP lysis buffer. 500 μM of the compounds were added into each 1 ml of the samples and IP lysis buffer with 2 μg of anti-MTDH antibody. Western blot was then performed to detect SND1 that binds to MTDH.
(§2) FIG. 10E, Schematic diagram of Co-IP based confirmation of MTDH-SND1 inhibitory compounds (left). SCP28 cells were lysed for IP assay.2 μg of MTDH antibody together with 500 μM of MTDH wild type (Pep-WT) or mutant (Pep-MT) peptides were added into each 1 ml of samples. Red star indicates wild type MTDH peptide competing off SND1 that binds to MTDH.
(§3) Co-immunoprecipitation assay (Co-IP), which is a commonly used standard test to determine protein-protein interaction, was next employed to validate the candidates. Lysates of breast cancer cell line SCP28, a single cell-derived subline from the MDA-MB-231 TNBC cell line^25, was immunoprecipitated with anti-MTDH antibody alone or together with inhibitors (FIG. 3F and FIG. 10E). The samples were then incubated with Protein-A/G beads to pull down MTDH, followed by Western blot analysis to detect SND1. […] Using multiple screening and validation platforms, two classes of compounds, C26s and C32s, were obtained that inhibit MTDH-SND1 interaction.
Immunoprecipitation (IP) and western blotting (WB) analysis. For IP experiment, samples were prepared as previously described^32. 100 μl of the supernatant was transferred to a new tube as input, and the rest was incubated with 2 μg of IgG, anti-Myc (Santa Cruz, SC-40), or anti-MTDH (ThermoFisher, 40-6500) (as indicated in each experiment) overnight at 4° C. (small chemical compounds may be added at this step as indicated in each experiment). The rest standard IP procedures were performed as previously noted^32. […]
On the technique in general: Immunoblotting shows a protein as a band on a membrane.

Assay [4] has as its target T4, SND1 (endogenous, SCP28 breast cancer cell lysate) (human, UniProt Q7KZF4 2-910).
T4 construct: Detected by Western blot after MTDH immunoprecipitation; also called Staphylococcal nuclease domain-containing 1
T4 sequence (looked up): T3 sequence (Q7KZF4 2-910 limits assumed)
The assay can be described thus: Co-IP competition, SCP28 lysate, anti-MTDH antibody, Western blot for SND1. As for the experimental part: as §2
as §3, with “line²⁵,” for “line^25,”, “SND1. In such co-TP experiment, MTDH-WT but not MTDH-MT peptide blocks MTDH-SND1 interaction (FIG. 10E).” for “SND1.”

Assay [5] concerns the target T5, SND1-NLuc (human).
T5 construct: Expressed in HEK293T cells and used as cell lysate; also called Myc-SND1-NLuc; split-luc component
T5 chain: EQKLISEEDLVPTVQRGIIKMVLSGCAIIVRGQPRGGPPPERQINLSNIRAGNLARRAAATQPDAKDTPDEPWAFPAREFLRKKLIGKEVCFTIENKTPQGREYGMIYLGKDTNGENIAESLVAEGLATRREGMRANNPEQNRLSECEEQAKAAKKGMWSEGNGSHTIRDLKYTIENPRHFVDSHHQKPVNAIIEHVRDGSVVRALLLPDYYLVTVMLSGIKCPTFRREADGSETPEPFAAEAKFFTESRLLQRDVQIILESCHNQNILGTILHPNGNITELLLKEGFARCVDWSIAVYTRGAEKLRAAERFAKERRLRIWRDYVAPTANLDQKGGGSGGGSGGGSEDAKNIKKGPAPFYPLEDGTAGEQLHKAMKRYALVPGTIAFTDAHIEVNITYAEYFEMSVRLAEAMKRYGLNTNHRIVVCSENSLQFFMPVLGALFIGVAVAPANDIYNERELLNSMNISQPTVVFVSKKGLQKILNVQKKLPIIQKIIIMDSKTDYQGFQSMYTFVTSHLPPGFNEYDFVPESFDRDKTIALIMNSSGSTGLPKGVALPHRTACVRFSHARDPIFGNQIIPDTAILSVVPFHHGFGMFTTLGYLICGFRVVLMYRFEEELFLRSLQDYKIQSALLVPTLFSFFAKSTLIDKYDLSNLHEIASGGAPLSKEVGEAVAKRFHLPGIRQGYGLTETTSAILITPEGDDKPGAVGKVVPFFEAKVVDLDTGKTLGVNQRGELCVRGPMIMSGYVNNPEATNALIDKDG
Briefly: split-luciferase competition assay, 50 µM peptide, competitor of CLuc-MTDH. How it is done:
as §1, with “7-8×10⁶” for “7-8×10^6”, “H₃PO₄)” for “H3PO4)”
For small chemical compound screening, white, flat-bottom, solid 384-well plates were used. Compounds were added into each well as 0.1 μl of 10 mM DMSO solution (or same amount of DMSO, serve as control). The first and last columns were free, and MTDH wild type ([…]) or mutant ([…]) peptides were added as positive and negative controls right before screening. Same amount of MTDH-CLuc and SND1-NLuc were pre-mixed at 4° C. for 30 min to generate split-luc. 5 μl of split- or linked-luc was added into each well. […] The plates were incubated at 4° C. for 1 hr and luciferase activity at each well was measured.

Assay [6] has as its target T6, SND1-NLuc.
T6 chain: T5 chain
The assay can be described thus: split-luciferase assay (inhibition of SND1-NLuc/CLuc-MTDH interaction).

T2 sequence (P08659 with tags, fused parts or gaps INS416[withheld]): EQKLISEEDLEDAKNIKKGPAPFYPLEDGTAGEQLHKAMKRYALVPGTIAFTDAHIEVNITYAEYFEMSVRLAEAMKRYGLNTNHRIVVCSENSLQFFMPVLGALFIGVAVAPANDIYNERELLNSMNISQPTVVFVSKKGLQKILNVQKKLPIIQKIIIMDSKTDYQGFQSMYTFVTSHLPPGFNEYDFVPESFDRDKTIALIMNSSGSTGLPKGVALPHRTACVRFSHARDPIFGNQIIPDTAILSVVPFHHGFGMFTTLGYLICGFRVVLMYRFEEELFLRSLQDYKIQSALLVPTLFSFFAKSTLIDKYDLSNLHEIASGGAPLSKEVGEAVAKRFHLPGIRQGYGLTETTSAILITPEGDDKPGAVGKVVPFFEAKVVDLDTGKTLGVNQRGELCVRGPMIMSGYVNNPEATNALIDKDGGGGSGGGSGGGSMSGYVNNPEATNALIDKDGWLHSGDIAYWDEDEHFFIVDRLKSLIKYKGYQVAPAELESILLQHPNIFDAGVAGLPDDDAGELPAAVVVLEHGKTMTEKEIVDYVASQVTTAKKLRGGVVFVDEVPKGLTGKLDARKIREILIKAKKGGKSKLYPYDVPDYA

“PNSDWNAPAEEWGNW [MTDH-WT, reference compound]”: the split-luc activity entry in assay [1] is given as “significantly inhibited split-luc activity”. Moreover, in assay [2], the linked-luc activity entry is “not affected”. In assay [3], the “MTDH-SND1 interaction (SND1 that binds to MTDH, Co-IP)” value is on record as “blocks MTDH-SND1 interaction”.
As for PNSDWNAPAEEWGNW (also called MTDH-WT peptide; Pep-WT) [wild type MTDH (MTDH-WT) minimal peptide], the binding result in assay [4] and in assay [5] was “binds” in each case. Besides, the IC50 in assay [6] came out at 1200 nM.

As usually defined, the IC50 is the concentration that inhibits the measured activity by half. Higher therefore signals weaker potency.

Values taken from patent US20240398767A1, “INHIBITORS OF THE MTDH-SND1 PROTEIN COMPLEX FOR CANCER THERAPY” (The Trustees of Princeton University, priority 2021, published 2024).
